According to article PMC3558936 (Neuron, 2013):

Target: the molecule itself
Experiment: FRET or BRET

B1: Ciona intestinalis Hv1 (Ci-Hv1) D171A/S242C channel (natural protein, UniProt Q1JV40 1-342, looked up)
chain: MEGDNCNKSRHKSHNMINPNYASVRCTQPLPSVIQLRSRNKMIGITEDPSSDSEPVSSNQPLLLTNLSYEVHTFNDNNNHERPAPQEQSTQNTMISMQSEQKSDRFTASNLGMFQYMKFEIGEDGDDHEEEAILTNREKLRHILHSKPIHVAIIVLVVLDSFLVVGELLIALKVIIVPHGNPAPEILHGFSLSILSIFMVEIALKIIADHRHFIHHKVEVLDAVVVVISFGVDIALIFVGECEALAAIGLLVILRLWRVFRIINGIIVTVKTKADDRVHEIKKKNSELELQIHNLEEKLSQKEQDMSRLHEILRCNNIDIPPTVPLTTSVQIHSTTTASADV
modifications: Alexa488-maleimide (donor) or TMR-MTS (acceptor) on the introduced cysteine 242
For B1, the “stoichiometry N” value was 2.
